B1: Protein ABSCISIC ACID-… 5 (Arabidopsis thaliana (Mouse-ear cress)), Q9SJN0 (parent)
chain: MVTRETKLTSEREVESSMAQARHNGGGGGENHPFTSLGRQSSIYSLTLDEFQHALCENGKNFGSMNMDEFLVSIWNAEENNNNQQQAAAAAGSHSVPANHNGFNNNNNNGGEGGVGVFSGGSRGNEDANNKRGIANESSLPRQGSLTLPAPLCRKTVDEVWSEIHRGGGSGNGGDSNGRSSSSNGQNNAQNGGETAARQPTFGEMTLEDFLVKAGVVREHPTNPKPNPNPNQNQNPSSVIPAAAQQQLYGVFQGTGDPSFPGQAMGVGDPSGYAKRTGGGGYQQAPPVQAGVCYGGGVGFGAGGQQMGMVGPLSPVSSDGLGHGQVDNIGGQYGVDMGGLRGRKRVVDGPVEKVVERRQRRMIKNRESAARSRARKQAYTVELEAELNQLKEENAQLKHALAELERKRKQQYFESLKSRAQPKLPKSNGRLRTLMRNPSCPL

Variants of: B1
Settings: with sumo1_arath SUMO1, P55852
Chain of sumo1_arath SUMO1, P55852 (P55852 whole entry): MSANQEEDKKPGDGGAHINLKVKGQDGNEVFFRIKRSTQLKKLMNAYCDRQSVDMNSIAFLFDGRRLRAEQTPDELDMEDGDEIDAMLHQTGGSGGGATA

| effect of a mutation on the interaction | Variant |
| --- | --- |
| disrupting interaction | K391R |

From IntAct's records for PubMed 19276109
